Experimental data taken from the RNAGym collection of RNA variant scans (doi:10.1093/molbev/msab373).

B1: Azoarcus group I ribozyme (parent)
chain: GUGCCUUGCGCCGGGAAACCACGCAAGGGAUGGUGUCAAAUUCGGCGAAACCUAAGCGCCCGCCCGGGCGUAUGGCAACGCCGAGCCAAGCUUCGGCGCCUGCGCCGAUGAAGGUGUAGAGACUAGACGGCACCCACCUAAGGCAAACGCUAUGGUGAAGGCAUAGUCCAGGGAGUGGCGAAAGUCACACAAACCGG

Variants of: B1
Test: reverse-splicing fitness (ratio to wild type); higher = more active; in vitro selection; Mg2+ level not given
Summary of the method: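 An in vitro group I ribozyme library with randomized positions was T7-transcribed and gel-purified. In triplicate, 10 pmol RNA in EPPS pH 7.5 was reacted with 50 pmoles of a 30-nt RNA substrate for 1 h at 37 °C across several added MgCl2 levels (1–48 mM), then stopped with EDTA. Products were reverse transcribed from a substrate-complementary primer, PCR-amplified and sequenced (HiSeq 4000). Fitness is a variant's read proportion after selection over that before, normalised to wild type.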

Going from A111C A145U C150G U176G to A111G A120C A145U C150U U176C, the reverse-splicing fitness rises from 0.022 to 0.357.

First: A111G A120C A145U C150U U176G
Second: A111G A120C A145U C150U U176A
The reverse-splicing fitness of the first is lower: 0.0965 for the first, 0.365 for the second.

Compared with A111G A120C A145G C150U C169A U176G, A111G A120C A145G C150U C169A U176A is higher in reverse-splicing fitness: 0.00456 for the first, 0.016 for the second.

Going from A111G A120C A145G C150U C169A U176C to A111G A120C A145U C150G C169G U176G, the reverse-splicing fitness falls from 0.0149 to 0.00416.

Going from A111G A120C A145U C150G C169G U176A to A111G A120C A145U C150G C169G U176C, the reverse-splicing fitness falls from 0.00655 to 0.00451.

Compared with A111G A120C A145G C150U, A111G A120C A145G C150A is lower in reverse-splicing fitness: 0.582 for the first, 0.166 for the second.

Compared with A111G A120C A145G C150G, A111G A120C A145U C150A C169G U176A is lower in reverse-splicing fitness: 0.0893 for the first, 0.0144 for the second.

Going from A111G A120C A145U C150A C169G U176C to A111G A120C A145U C150A C169G U176G, the reverse-splicing fitness falls from 0.011 to 0.00393.

Going from A111G A120C A145G C150G U176C to A111G A120C A145G C150G U176A, the reverse-splicing fitness falls from 0.0262 to 0.0105.

First: A111G A120C A145G C150G U176G
Second: A111C C150U C169A U176C
The reverse-splicing fitness of the first is lower: 0.00497 for the first, 0.0136 for the second.

First: A111C C150U C169A U176G
Second: A111C C150U C169A U176A
The reverse-splicing fitness of the first is lower: 0.00796 for the first, 0.0164 for the second.

Compared with A111C C150U C169U, A111C C150U C169A is lower in reverse-splicing fitness: 0.0632 for the first, 0.0198 for the second.

Going from A111C C150U C169G to A111G A120C A145G C150U U176A, the reverse-splicing fitness rises from 0.0354 to 0.287.

First: A111G A120C A145G C150U U176G
Second: A111G A120C A145G C150U U176C
The reverse-splicing fitness of the first is lower: 0.0682 for the first, 0.316 for the second.

Going from A111C A145U C150G C169G U176A to A111C A145U C150G C169G U176G, the reverse-splicing fitness falls from 0.00777 to 0.0067.

Going from A111C A145U C150G C169G U176C to A111G A120C A145C C169U U176A, the reverse-splicing fitness rises from 0.00594 to 0.0611.

Compared with A111G A120C A145C C169U U176C, A111G A120C A145C C169U U176G is lower in reverse-splicing fitness: 0.061 for the first, 0.00718 for the second.

Going from A111C A145U C150U U176G to A111C A145U C150U U176C, the reverse-splicing fitness rises from 0.166 to 0.36.

Compared with A111C A145U C150U U176A, A111G A120C A145U C150A U176C is lower in reverse-splicing fitness: 0.365 for the first, 0.0741 for the second.

Compared with A111G A120C A145U C150A U176G, A111G A120C A145U C150A U176A is higher in reverse-splicing fitness: 0.024 for the first, 0.0685 for the second.

Compared with A111G A120C A145U C150G C169A U176G, A111G A120C A145U C150G C169A U176C is higher in reverse-splicing fitness: 0.00414 for the first, 0.00745 for the second.

Going from A111G A120C A145U C150G C169A U176A to A111G A120C C150A C169G U176C, the reverse-splicing fitness rises from 0.00723 to 0.0196.

Compared with A111G A120C C150A C169G U176A, A111G A120C C150A C169G U176G is lower in reverse-splicing fitness: 0.0214 for the first, 0.00513 for the second.

Going from A111G A120C A145G C150G C169G U176A to A111G A120C A145G C150G C169G U176G, the reverse-splicing fitness falls from 0.00741 to 0.00503.

First: A111G A120C A145G C150G C169G U176C
Second: A111G A120C A145U C150U C169U U176G
The reverse-splicing fitness of the first is lower: 0.00529 for the first, 0.00606 for the second.

First: A111G A120C A145U C150U C169U U176C
Second: A111G A120C A145U C150U C169U U176A
The reverse-splicing fitness of the first is higher: 0.051 for the first, 0.0423 for the second.

Compared with A111G A120C A145C C150A U176G, A111G A120C A145C C150A U176C is higher in reverse-splicing fitness: 0.0123 for the first, 0.0404 for the second.

First: A111G A120C A145C C150A U176A
Second: A111C C150A C169A U176C
The reverse-splicing fitness of the first is higher: 0.0376 for the first, 0.0227 for the second.

Compared with A111C C150A C169A U176A, A111C C150A C169A U176G is lower in reverse-splicing fitness: 0.0182 for the first, 0.00777 for the second.

First: A111G A120C A145G C150A C169A U176C
Second: A111G A120C A145G C150A C169A U176A
The reverse-splicing fitness of the first is lower: 0.0181 for the first, 0.0185 for the second.

First: A111G A120C A145G C150A C169A U176G
Second: A111C A145U C169A U176G
The reverse-splicing fitness of the first is lower: 0.00507 for the first, 0.00736 for the second.

First: A111C A145U C169A U176C
Second: A111C A145U C169A U176A
The reverse-splicing fitness of the first is higher: 0.018 for the first, 0.0141 for the second.

First: A111G A120C C150G C169A
Second: A111G A120C C150G C169G
The reverse-splicing fitness of the first is higher: 0.00889 for the first, 0.0068 for the second.

Compared with A111G A120C A145G C150U C169G U176C, A111G A120C A145G C150U C169G U176A is higher in reverse-splicing fitness: 0.0192 for the first, 0.0195 for the second.

Compared with A111G A120C A145G C150U C169G U176G, A111G A120C A145C C150U C169A U176C is lower in reverse-splicing fitness: 0.00469 for the first, 0.00426 for the second.

Compared with A111G A120C A145C C150U C169A U176G, A111G A120C A145C C150U C169A U176A is higher in reverse-splicing fitness: 0.00419 for the first, 0.00824 for the second.

First: A111G A120C C150G C169A U176A
Second: A111G A120C C150G C169A U176G
The reverse-splicing fitness of the first is higher: 0.00551 for the first, 0.00466 for the second.

Compared with A111G A120C C150G C169A U176C, A111G A120C A145G C150G C169A U176G is lower in reverse-splicing fitness: 0.00784 for the first, 0.00623 for the second.

First: A111G A120C A145G C150G C169A U176A
Second: A111G A120C A145G C150G C169A U176C
The reverse-splicing fitness of the first is lower: 0.00955 for the first, 0.0102 for the second.

Compared with A111G A120C A145G C150G C169U U176A, A111G A120C A145G C150G C169U U176C is higher in reverse-splicing fitness: 0.00706 for the first, 0.0116 for the second.

Compared with A111G A120C A145G C150G C169U U176G, A111G A120C A145C C150U U176C is higher in reverse-splicing fitness: 0.00458 for the first, 0.158 for the second.

Compared with A111G A120C A145C C150U U176G, A111G A120C A145C C150U U176A is higher in reverse-splicing fitness: 0.05 for the first, 0.17 for the second.
